Assay: soluble fraction after stress (log2 fold change); higher = more stays soluble; pooled small domains, quantitative proteomics
Settings: stress: 75 degC
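Further: 20 min heating vs room temperature control held 20 min.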

Sequence | soluble fraction (log2)
HMNEKLRNYIDTLFEHAPTTVRAVELKEEMFQNLTDKYNDLIAQGKSEEAAFNIAVASIGDVDSLIAGLS | 0.179
HMNELGSLIKRKREELGLSQEELARILGYKHKSSINKIELGLADVPRTKVPAFAKALGMTPVEFS | -0.12
HMNELPSVIIMKNGRTRPYELQEISKDEEWLNQTIREHGIEPKDIFIAEFWDGRTAFILNDGRIVK | -0.428
HMNERIKSLRKALGLTQQEFADKLGISRGNIGAYEVGKNAPSDAVISLIVRIFNTNENWLRTGEGEM | -0.776
HMNETSRTRALNILGLKATATQEDIKKAYRSLAKEYHPDKLVGVSEGVKKISEEKFREINEAYEYLI | 0.557
HMNEVIIKNWSNAVGRNIKIKTKRGRPIFGRLLAINDQQLTIASKYMRGNATITVAREDVVSMSVS | -3.08
HMNEVRINTAHIEHKYLGEVKVLDIQEMRNARGRDADPLAFLAIRFWSPRGVLVRVKDSRDATPYWLIS | 0.199
HMNEYHRNISDEEFVRDIKETAIKLKKETLTGVEYSQNGKYHASTIIHRFGSWKKALELAELNTK | -0.225
HMNFNYPVIVKNSRINVSGVLSAAKLYTINGQLLQSYKGSGEFTSKTLTKGIYILQVDNARTKVLV | -4.42
HMNFSKEYILVHSYKEIDILDALIVKYEATLVNREFDLFINSYIKINEDYAKLFRDEIISKTSGSMSIKEL | -2.93
HMNFTKHPENPNFVVYRFTDPERANSFRAELIANNISFEEDTEKKKQLIYTLFAIHTKYYNQSMQINIK | -0.843
HMNFTVTDKNAVLYSNDNTKVYESPDINSKLVTTIAKDLPVNVTGITSNGWFRISLEGTYYVPGNGLEQR | -0.139
HMNGADPYEQLGVTRDASDDELKAAHRKLSRENHPDTLMAKGMPPEFIEQANDKMARINAAWDQIRKERGI | 0.323
HMNGAITLRVRPSDEGKRLDVFVVSQLTGYTRSFVAGLIGDRHFLVNGQPKKPGYRIKSSDTISGVIPAPA | -2.1
HMNGARALAGAIAEAIRKQVYRVNERLPAERELASHYDVSRGTLRSALALLEQEGLVTRKVGSGTFVMPP | -0.761
HMNGNLRAQVLELMGRADYEPLNKSELSRKLDLQGSDRSSLRILMDELERDHSVVRLKKGRFALKVV | -0.852
HMNGQFIELKNTTGTIIEARVLSFQNGKVKLQRNDGLIFVASISIFDSESIEVIKQKVAEISESKKS | -1.97
HMNGQITPSRAKEIALGHAGVSEGSANFKKIKLDNKNGRPAYEIEFIANNSRYEFEINASNGSIIKFNK | -0.321
HMNGYGALVRLGRSRGWVTVEEINDHLPESAVRTAENVQEITEALGRLSIKVFETRPDEDDLLIT | -0.458
HMNHGDATTETQAEIMAILSDMKPHPITELNTIKRPYEQIDTALTYLINEEKIYRMDGMIFIG | -1.38
HMNHYTEEYILKRMKDFFTTHAYITRRDIESLFGFRRSYATKWLKHFRESGVLKQSGPVNSAVYLL | -3.18
HMNIAESIRKYRKASGLTQEEMAKRLGVTTPAVSKWENGITNPDIALLAPIARLFHISVDTLLSYR | -1.83
HMNIDKLVGSTGTVVRSVTPDTAGLVRVNDEDWRASAEEILYERDAIVVEGIEGVTLIVSKLS | -0.813
HMNIETHIVPKLLAPIRLQEYGVGIFNNIPTKSALKKALKKQLITVDKTVATTATFIKGGETIELAYQ | -3.07

Sequence | soluble fraction (log2)
HMNIGEKIKTLRENNNISIEELAEKINDSIENILKYENNELEPTLDKKLALSIALGVTLSDLS | 0.971
HMNIGELINKKRTELGLTLEEVGNAVGVSKSTVKKWEDGFISNMRRDKISKLAKVLEMNPVSLITGE | 0.00376
HMNIGSKLRYLIEEANITQRQLADALHISPSALNGYINQGKEPDYATLVRIADYFHTSTDYLLGHSNIR | -0.806
HMNIIATHTVPAIEQKIRLQEYAISIFPQINSRSALKKAIAKKLVLLDGERASTADWIQPGQKIELLEDK | -1.37
HMNILAPFWERFGLSAFAAGNYDRAEGYFRKLEQKDPNSMSVLRNLGLILMAKGDAEGAEAYLLREEKL | -0.755
HMNILKKDKRLWDENNLNKPLLFELLENYDKEIFELLLTDKDIKAKFFVQAGESYVFKYDDFRFAIEQN | -3.32
HMNIMAQDWISSPMGPISFKSNQHGLVKIGWGEVPRENTEQPNLEFTRKWLVDYFEGKASPLPYF | -0.623
HMNIQGIFGRNLKQKRLEKGMTQEQLAEKAGVSTDTVKRYESGKYDGIRLDMAWYMANALDTPLQALLPP | 0.598
HMNISALKGKIGEVYLKIPAHNAGKGKVLISLKGTHHELYAITRSGEDISSGEFVKVIEIEDEILVVEK | -2.05
HMNITFAENIKQFRKAKSMSMEELGKRLGKAKSSISAWENGKRTPKINELKSISEALGVTISQLLGF | -1.71
HMNIYIEFGRRLAFIRQNSKLSQSQIAQKLNIAQSTYAGYEKGVRKIPLEIIVQLSKILNISPTILILG | -3.84
HMNKADFLRKLDRELSVLDQEERKEILSFYEERFYTGTNYENKTELDIINELENPEIIAKNVLEEYGV | -0.253
HMNKDEFLRRLEDALSGEVPASVIRENLNYYADYLSQELGKGRTMDEIIEEIGEPNIVARTIINSAEAA | 0.184
HMNKDWQDEVALQRYTMITPLLSEDLDNAKRIAMREKIAQDNLTTARSLYRYEKAYRENGFQGLRPTD | -0.252
HMNKEIEDYVATYSSMKAKEAAAIFDTMTSDLDLVAKILEAMSADDRAKILEQMNEENAARLTKMMD | 0.0551
HMNKEQIASNIAEARKRSGLNQSELARRLGIRPQSVQQWEKGTATPKLDRLTAIAQVLGVSLESLTG | -0.0463
HMNKFADLAGNIIYNENGVEVFNFGKYKGQPVAEVFKKDIGYYGWIQNADFPRYTKKVFTAIQLKSK | -1.28
HMNKIDVVEVDMSKPYEDMTVTELQNVILGKLASNGPVTDQMKKDVAENIYHDSLVNWAKSF | 0.883
HMNKIENLSQTILNILRKDHSQAFNYKQIAAKLQLDDPSSRNQIVKKLKDLQGKGTIQEIERGKYILTP | 0.394
HMNKITIDQAKEIALNHAKLTAEQVSFIRTESEFDDGIEKYNIEFYYNNQKYDYDINAVNGQIIQYDLEG | 0.159
HMNKITIEEAKSIALKHSNLDESQVSFIRSEYDFDNGIEKYEIEFYYNNNKYEYEINAKTGDIISYDYDI | -1.02
HMNKKAAYKDMAGYFAEMKSKDAADILSRLKDEDIIGIFNEMPRDMVAEMLQKMDRDKATTLTRKML | 0.444
HMNKKEQYQNIISNFLEKMSEEDRLIFNMHFFKSINISQIARSIDREGYYVKTKIENLLADLKSLMIGNNL | -2.95
HMNKKETRLNNFIHFLKIRNSITVKEMANHLNVSEMTVRRDIKELTADHTINFENGKIMFNPQSSL | -1.82

Sequence | soluble fraction (log2)
HMNKLIIDAAEDKIFFMIMNNDISYNISHENTKINFEKLIILINDFLSSKKLKINDITGLYV | 0.123
HMNKNIKIPNISNLSREDAESVLKESGISVSTEIKEVESDTIEKGKVVKTEPSIGSTVKQGRTITIYISSG | 0.161
HMNKRYKVQVTTDNLKIRKGAGTSYPVVGHITDKGTYTIVETSGKWGKLLSGAGWIYLSYTKK | -2.13
HMNKTEIISILEKIVLPTQIRNINIFGSEVIIDLNIDNPSLHAKKKLEKSIINSFDKNHKIIINFNVE | -0.238
HMNKTLTEQIYDELKSAIIELELKPGEFVTEEYLAEQLGVSRTPLKSAISKLIFEGLMAYEVGKGTYIS | -1.11
HMNKVQTFIIEKHIKEVFEHTNRTYYRSGQYYFQTRDEFSMALKRFLKDREPNKKNWIDSIINRA | -0.945
HMNKYQFESKIHIYRATKRMTQQELADLVGVSRQTIMQLERNRYNPSMMLAYGIAKVFDVTIEDLFDFSEV | -3.18
HMNKYYQQLLQADPTGFIDPFKDLGTYDSRLNTFKEPVSELLNPFSGRPYSKIWQKRIETMREIFISYIKS | -2.8
HMNLDVEQIKKEALNQLIEIGNENDGIVTIKDFKKIDDISSLDEDDIEDIRNLLIENNIEIFE | 0.0781
HMNLEQTIVLGKRLFNNALDTLGKKQRSIKNKQINKLLELLNFKNMNELYQSIGVGDKNPLLMAQMML | -0.775
HMNLESNQYVIDISDSQVINKDEFETILNQNKTKDIVIKSNNNVTFTFEKGSMIGAEGKDNYDFSSQVNY | -0.0852
HMNLFNEIEKQYQALQDRSSASLVDLRHLLLDIEELVNSPDYQALAPDQRSTLQAARKELMRRIQKQEN | 0.819
HMNLGDSLFHARRKQGLSQEAVAEQLGVSRQTVSKWEANETLPDIRQSKLMAKLYHTSLDELI | 0.0881
HMNLLDYTTLYVTSDGKSVSFGIAGKEIPVSYIAQEAPGTVVIDDTIRIPRKYDMEYILKRFNES | -1.2
HMNLLGDNIRKLRLEKGLGLNEVARLANITGGYLSSIENNKRTNVGTEILESIAKAIGVSVSDFYL | -0.347
HMNLLGERIREIRMEMGLTAKELAQRASVTPGYISQIEHDQIKPSMNVMMRIAEVLNVPMAALLM | -2.38
HMNLLPAGTYKLKDLVTAEDEEIGAKKGDVVIAHEDTPPSDRVLGVDIFPVIHKNTSKKIYVSLEDI | 0.322
HMNLMQIHVARPPNQLGVFSQEEVAAGLQSGRFLPTDQAWRDGMSAWTPLSQWAEFSSVVAAV | -0.217
HMNLNLDITTYKLEELENLLKLKPNYKQEQIFEAKTKMEKFILKSNLNESKREELYIFLDNIYNKLTNNLL | -2.94
HMNLPISDREKELLTLLSKGLLYKEIASKLDITIGTVKQHIHNIYHKLHVSNKTEALNLFNK | -1
HMNLRLKEVLDEKNMSLVTLSEKTGIEKGNLSAISNNKKNPTVETLSKIAKALQISLAELFESPP | 0.416
HMNLSDIETWLRELSLEKYALAFSEAEIDFETLPELTEDDLKEVGLPVGPRRKVWGAIQLLRTTD | -1.48
